From patent US20220220214A1 (AB INITIO BIOTHERAPEUTICS, published 2022)
Values belong to the binder of their own block, whether it stands above or below them.

What was measured:
[1] = biological target: T1, apelin (APJ) receptor on APJ-expressing cells (Homo sapiens (Human), UniProt P35414 1-380); assay: method not stated (Example 2)
T1 construct: also called apelin (APJ)-expressing cells; target cells
T1 sequence: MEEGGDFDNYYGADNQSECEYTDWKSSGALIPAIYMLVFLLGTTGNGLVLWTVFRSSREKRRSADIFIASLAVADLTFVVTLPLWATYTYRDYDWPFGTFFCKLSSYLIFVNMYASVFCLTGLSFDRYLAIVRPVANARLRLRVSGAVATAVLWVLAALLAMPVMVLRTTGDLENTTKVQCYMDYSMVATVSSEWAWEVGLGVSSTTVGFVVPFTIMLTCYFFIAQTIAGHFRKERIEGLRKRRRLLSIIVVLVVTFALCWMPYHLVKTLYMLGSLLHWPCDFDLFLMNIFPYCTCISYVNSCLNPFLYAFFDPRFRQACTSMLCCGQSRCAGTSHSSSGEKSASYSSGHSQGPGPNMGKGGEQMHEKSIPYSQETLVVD

[2] = biological target: T1, apelin (APJ) receptor on APJ-expressing …; assay: cell-based or functional assay
[3] = biological target: T2, mouse APJ receptor expressed on CT26 cells (mouse, UniProt Q9WV08 1-377); assay: binding to the surface of CT26 cells
T2 construct: whole, on cells
T2 sequence (looked up): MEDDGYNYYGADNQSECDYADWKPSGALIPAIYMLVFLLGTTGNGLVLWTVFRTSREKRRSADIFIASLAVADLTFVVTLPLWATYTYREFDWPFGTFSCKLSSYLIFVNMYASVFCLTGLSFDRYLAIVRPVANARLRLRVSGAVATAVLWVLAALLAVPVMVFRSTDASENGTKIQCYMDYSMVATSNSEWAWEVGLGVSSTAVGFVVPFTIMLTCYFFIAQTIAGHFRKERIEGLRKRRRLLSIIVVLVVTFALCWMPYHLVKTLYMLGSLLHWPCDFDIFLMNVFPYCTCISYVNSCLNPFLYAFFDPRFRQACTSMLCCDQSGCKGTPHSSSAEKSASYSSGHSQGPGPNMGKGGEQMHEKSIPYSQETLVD

- Ki [1]: 39 nM
- Fold suppression (saturated), β-arrestin signaling [2]: 8.5 fold
B1: VHH-23 (VHH)
VHH: QVQLQESGGGLVQAGGSLRLSCAASGNISPFRAMGWYRQAPGKEREFVAAINTGAITNYADSVKGRFTISRDNAKNTVYLQMNSLKPEDTAVYYCAASCRAYASRIDLFSYHTYWGQGTQVTVSS
notes: Nanobody

- Kd [3]: ~100 nM
B2: VHH-21 (VHH)
VHH: QVQLQESGGGLVQAGGSLRLSCAASGSISVGYLMGWYRQAPGKERELVAGINYGSNTYYADSVKGRFTISRDNAKNTVYLQMNSLKPEDTAVYYCAASQRRAYAARIDLFSYHTYWGQGTQVTVSS
notes: Nanobody; VHH-21-Fc (aglycosylated human IgG1 Fc) was used in vivo; also called negative allosteric modulator VHH-21

- Kd [1]: 13 nM
- Fold suppression (saturated), β-arrestin signaling [2]: 5.9 fold
B3: VHH-22 (VHH)
VHH: QVQLQESGGGLVQAGGSLRLSCAASGNIFRGRVMGWYRQAPGKEREFVAGIDYGASTNYADSVKGRFTISRDNAKNTVYLQMNSLKPEDTAVYYCAARLSERRRLEGYWSAVHVYWGQGTQVTVSS
notes: Nanobody
